Drawing on paper PMC11751033, this text covers Kd for one substance.

The series relates to ATF 3r (six-zinc-finger artificial transcription factor with NLS, VP64 and HA tag) (artificial/designed (expressed in E. coli BL21)). Briefly: EMSA. The settings on record: EMSA: 2.5% glycerol, 5 mM MgCl2, 0.05% NP-40, 50 mM KCl, 20 uL, 20 pmol DNA, 0 C 1 h; 4-8% native PAGE in TBE pH 8.2-8.4, 5 C, SYBR Safe stain; binding pH not ….

On to IFNG target dsDNA (ATF 3 site), for which the Kd was found to be 5.2 nM.

A word on the Kd: it is the free concentration of one partner at which half of the binding sites on the other are occupied at equilibrium, for simple one-to-one binding. Low values mean a tighter complex, high ones a looser complex.
